According to patent publication US10182986B2, “Method of delivering therapeutics and imaging agents to the brain by nanoparticles that cross the blood brain barrier” (CALIFORNIA INSTITUTE OF TECHNOLOGY, priority 2013, dated 2019):

Test: Tf-DAK-PEG-OPSS degradation in pH 5.5 buffer followed by MALDI-TOF
Type: physicochemical
Details: 37° C., crude mixture
Protocol: At various time points, aliquots were removed, diluted 1:10 in 10 mM NaH2PO4 pH 8.0 and frozen on CO2(s). Once the last aliquot was removed, all samples were melted and immediately measured by MALDI-TOF using a sinapinic acid matrix.

Tf-DAK-PEG-OPSS: human holo-Tf conjugated through diamino ketal (DAK) linker to PEG-orthopyridyl disulfide
Time by which nearly all the PEG has cleaved: ≤ 2 h
